Results from patent US20210032334A1 (Dana-Farber, published 2021).

Target: T1, full-length murine BTNL2 expressed on 300.19 cells (mouse)
T1 construct: No signal peptide limits are stated; also called mBTNL2; mouse BTNL2
T1 chain: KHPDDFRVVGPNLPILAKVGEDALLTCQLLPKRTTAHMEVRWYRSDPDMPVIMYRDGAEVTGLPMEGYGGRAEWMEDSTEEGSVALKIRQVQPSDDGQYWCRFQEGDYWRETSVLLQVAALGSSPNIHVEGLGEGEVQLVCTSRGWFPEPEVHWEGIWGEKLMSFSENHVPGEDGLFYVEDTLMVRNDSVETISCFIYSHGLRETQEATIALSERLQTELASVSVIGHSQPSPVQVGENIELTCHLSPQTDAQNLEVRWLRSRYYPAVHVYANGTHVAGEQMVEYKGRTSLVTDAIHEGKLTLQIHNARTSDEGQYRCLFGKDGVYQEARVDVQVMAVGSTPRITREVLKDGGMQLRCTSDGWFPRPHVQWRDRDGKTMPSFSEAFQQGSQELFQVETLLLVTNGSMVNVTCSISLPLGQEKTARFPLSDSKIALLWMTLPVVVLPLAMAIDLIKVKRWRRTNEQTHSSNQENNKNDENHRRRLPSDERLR
Experiment: flow cytometry, cell binding on 300.19 cells expressing full-length mBTNL2
Protocol: All rat anti-mouse BTNL2 mAbs were tested for reactivity with specific Ig domains of BTNL2 by flow cytometry on 300.19 cells transfected with full length murine BTNL2 cDNA, murine BTLN2 (first IgV domain)-murine PD-L1 (IgC, transmembrane and cytoplasmic domains, or BTNL2 (first IgV domain and 2nd Ig domain and short exon 4)-human TIM-1 mucin-transmembrane-cytoplasmic domains and for lack of reactivity with untransfected 300.19 cells. In particular, mouse pre-B cell line 300.19 cells were transfected by electroporation with full length murine BTNL2 cDNA, murine BTLN2 (first IgV domain)-murine PD-L1 (IgC, transmembrane and cytoplasmic domains, or BTNL2 (first IgV domain and 2nd Ig domain and short exon 4)-human TIM-1 mucin-transmembrane-cytoplasmic domains in the pEFGF-Puro expression vector. Cells were selected in media containing puromycin, sorted, and subcloned. […] Cells were stained with target antibodies and isotype controls using standard flow cytometry procedures, and analyzed on a FACSCanto (BD Biosciences) and FlowJo 9.2 software (TreeStar). […]
A number of anti-BTNL2 monoclonal antibodies were generated and analyzed (see FIGS. 3C-3D and Table 3 below for details), including extensive analysis of two exemplary anti-BTNL2 monoclonal antibodies that were prepared in rat against mouse BTNL2 (mBTNL2). […]

EC50: 0.054 µg/mL
B1: anti-mouse BTNL2 monoclonal antibody clone 311.8A7 (antibody, rat IgG1, V domains shown)
VH: EVRLVESGGGLVQPGRSLKLSCAASGFTFRIFYMAWVRQSPTKGLEWVAYISAGSDFTYYRDSVKGRFTISRDDAKSTLYLEMDSLRSEDTATYHCTTGYRYNFAYWGQGTLVTVSS
VL: DIQLTQSPSSLPASLGERVTISCRSSQDINSHLNWYQQKPDGTIKALIYQTSNLQSGVPSRFSGSGSGADYSLTISSLEPEDFAIFHCQQDADFPYTFGAGTKLELK
notes: Rat IgG1 (kappa) from a hybridoma, 311 series
